# B1: human ADAMTS4 (A disintegrin and metalloproteinase with thrombospondin motifs 4) (protein)
# chain: FASLSRFVETLVVADDKMAAFHGAGLKRYLLTVMAAAAKAFKHPSIRNPVSLVVTRLVILGSGEEGPQVGPSAAQTLRSFCAWQRGLNTPEDSDPDHFDTAILFTRQDLCGVSTCDTLGMADVGTVCDPARSCAIVEDDGLQSAFTAAHELGHVFNMLHDNSKPCISLNGPLSTSRHVMAPVMAHVDPEEPWSPCSARFITDFLDNGYGHCLLDKPEAPLHLPVTFPGKDYDADRQCQLTFGPDSRHCPQLPPPCAALWCSGHLNGHAMCQTKHSPWADGTPCGPAQACMGGRCLHMDQLQDFNIPQAGGWGPWGPWGDCSRTCGGGVQFSSRDCTRPVPRNGGKYCEGRRTRFRSCNTEDCPTGSALTFREEQCAAYNHRTDLFKSFPGPMDWVPRYTGVAPQDQCKLTCQARALGYYYVLEPRVVDGTPCSPDSSSVCVQGRCIHAGCDRIIGSKKKFDKCMVCGGDGSGCSKQSGSFRKFRYGYNNVVTIPAGATHILVRQQGNAGHRSIYLALKLPDGSYALNGEYTLMPSPTDVVLPGAVSLRYSGATAASETLSGHGPLAQPLTLQVLVAGNPQDTRLRYSFFVPRPTPSTPRPTPQDWLHRRAQILEILRRRPWAGRK
# Target: human APP (695 amino acid isoform), P05067
protein,measurement,value
B1,"production amounts of APP669-711 (Aβ(-3-40)) and APP669-709 (Aβ(-3-38)) in culture supernatant (IP-MS), ADAMTS4 vector:empty vector 10:1 in APP stable HEK",tended to be rather slightly increased
